Results as given in publication doi:10.1101/2020.11.23.394106 (bioRxiv, 2020).
Where no end group is shown, it is not given here.

Tests used:
[1] = molecular target: T1, merlin FERM domain (22-312), GST tag cleaved (human, UniProt P35240 22-312); assay: fluorescence polarisation
T1 sequence: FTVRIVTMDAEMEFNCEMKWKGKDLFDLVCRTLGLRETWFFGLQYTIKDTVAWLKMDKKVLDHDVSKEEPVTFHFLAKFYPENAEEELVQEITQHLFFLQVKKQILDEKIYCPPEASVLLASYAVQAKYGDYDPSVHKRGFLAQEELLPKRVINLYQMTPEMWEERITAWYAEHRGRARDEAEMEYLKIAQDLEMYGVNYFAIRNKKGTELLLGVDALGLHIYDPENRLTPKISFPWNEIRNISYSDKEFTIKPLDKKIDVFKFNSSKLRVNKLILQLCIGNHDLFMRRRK

[2] = molecular target: moesin FERM domain, GST tag cleaved (UniProt P26038 2-295); assay: fluorescence polarisation
Chain of moesin FERM domain, GST tag cleaved (P26038 2-295): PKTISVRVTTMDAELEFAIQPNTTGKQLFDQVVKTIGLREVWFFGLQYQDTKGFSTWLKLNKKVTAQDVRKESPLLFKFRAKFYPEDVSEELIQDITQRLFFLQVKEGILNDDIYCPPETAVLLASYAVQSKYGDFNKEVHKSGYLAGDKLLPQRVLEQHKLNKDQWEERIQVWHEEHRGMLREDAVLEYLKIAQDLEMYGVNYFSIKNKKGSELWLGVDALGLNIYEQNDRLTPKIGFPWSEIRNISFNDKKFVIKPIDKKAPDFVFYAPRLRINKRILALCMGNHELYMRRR

**Q.** Does LEFADFYDFRSSYPDH (also: FITC label, site not given here) [FITC-labeled ZNF622_(341-356)] bind [1]?
**A.** binds

**Q.** Does FYDLWASDNPLDRPLV (also: FITC label, site not given here) [FITC-labeled NOP53_(192-207)] bind [1]?
**A.** binds

**Q.** With AEPLPSLEYWPQKSDR (also: FITC label (position not given here)) [FITC-labeled FAM83G_(111-126)] as the binder, how does the Kd [1] read?
**A.** 93000 nM

**Q.** Which Kd [2] does the source give for YYSVNTFKEHHSTPTI [KIRREL3_(637-652), unlabeled peptide] here?
**A.** 90 nM

**Q.** How did the Kd [2] turn out when TNGYYSVNTFKEHHSTPTI [KIRREL3 peptide with N-terminal extension of three amino acids (634-652), unlabeled] was run?
**A.** 120 nM
